Data: paper PMC4019693 (Nanomedicine : nanotechnology, biology, and medicine, 2013)
“And” between values parts separate entries of the source, which are not always exact repeats. Identical values can stand only once. “Also recorded” adds a separate entry of the source.

Legend:
Aβ40 [1] = test: SMFS of Aβ40 interaction; format: binding; settings: Aβ40 vs Aβ42, neutral pH; ref [10]
Aβ40 [2] = settings: cited from earlier work
Aβ42 [3] = target: T1, Aβ42 (Homo sapiens, UniProt P05067); test: Single-molecule AFM force spectroscopy; format: binding; settings: pH 7
Aβ42 [4] = target: T1, Aβ42; test: Dynamic force spectroscopy; format: binding; settings: for Lifetime of the dimer: calculated by k^−1off, SD from five independent experiments
Aβ42 [5] = target: T1, Aβ42; test: Contour length analysis of Aβ42 dimers; format: binding; settings: for Prevailing region of interpeptide interaction: in words
[6] = SDS-page gel experiment, monomer state of Aβ42; format: physicochemical; settings: diluted in different pH buffers from DMSO stock solution (Fig. S1)
[7] = single representative curve (Fig. 2A), WLC fit, ALR ~4,000 pN/s
[8] = pH 7, area under Gaussian curve

T1 sequence (P05067 672-713 limits assumed): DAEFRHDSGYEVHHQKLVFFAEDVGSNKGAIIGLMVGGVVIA

Aβ40: Aβ protein containing 40 residues; Aβ42 differs by two extra C terminal residues (I41 and A42)
Dimer lifetime relative to Aβ42 (Aβ40 [1]): four times shorter | Dimer lifetime relative to monomer dynamics (Aβ40 [2]; Aβ40 dimer lifetime vs monomer dynamics, ref [10]): ~10^6 times | Conformer population, major interactions (L0 and L1) (Aβ40 [2]; pH 7, N-terminal segment interactions, ref [10]): 74% | Lifetime of misfolded Aβ40 dimers (Aβ40 [2]; ref [10]): 0.1 s | Rupture forces of dimers compared to Aβ42 (Aβ40 [2]; result in words, reference not given, Aβ40 study is ref [10]): quite similar to those for Aβ42

Aβ42: Aβ42 terminated with cysteine at N-terminus (AnaSpec, Inc., Fremont, CA)
Rupture force of representative curves with various contour lengths (Aβ42 [3]; four curves of Fig. 4A, similar ALR (~20,000 pN/s)): 150±20 pN | Contour length, representative F-D curve (Aβ42 [3]; [7]): ~ 58 nm | Rupture force, representative F-D curve (Aβ42 [3]; [7]): ~ 83 pN | Lifetime of dimers (in words) (Aβ42 [4]; SMFS/DFS, pH not given): in the range of a second; also recorded: higher than that of Aβ40 | Lifetime of the dimer (Aβ42 [4]; pH 2.7): 2.5±0.7 s and 2.5 s and 2.5 (±0.7) s | Increase of the dimer lifetime, pH 2.7 vs pH 7 (Aβ42 [4]; pH 2.7 vs pH 7): ~5 fold | Lifetime of the dimer (Aβ42 [4]; pH 7): 0.46 (±0.25) s | ΔG, barrier height for dimer dissociation (Aβ42 [4]; pH 7, calculated from koff): ~ 28.3 kBT | Prevailing region of interpeptide interaction (Aβ42 [5]; acidic pH (2.7)): interaction within the peptide center prevailed | Conformer population, model L3 (C-termini), change vs pH 7 (Aβ42 [5]; pH 2.7 vs pH 7, result in words): three-fold drop in the interaction between the C-termini (model L3) | Conformer population, model L0 (interactions very close to N-termini) (Aβ42 [5]; [8]): 13% | Conformer population, model L1 (middle segments) (Aβ42 [5]; [8]): 29% | Prevailing region of interpeptide interaction (Aβ42 [5]; pH 7): Interaction via C-terminal segments prevailed | Contour length, Gaussian center L0 (Aβ42 [5]; pH 7 and 2.7, L0): around 35 nm | Contour length, Gaussian center L1 (Aβ42 [5]; pH 7 and 2.7, L1): ~41 nm | Contour length, Gaussian center L2 (Aβ42 [5]; pH 7 and 2.7, L2): ~47 nm | Contour length, Gaussian center L3 (Aβ42 [5]; pH 7 and 2.7, L3): ~53 nm | Monomer state by SDS-page gel [6]: The monomer state of Aβ42 diluted in different pH buffers from the stock solution was confirmed
